# Laboratory results published in US20180051079A1 (MacroGenics, published 2018).
# T1: CD32B (UniProt P31994 43-217, limits assumed)
# T1 construct: Only the name is printed; also called FcγRIIB
# T1 sequence (looked up): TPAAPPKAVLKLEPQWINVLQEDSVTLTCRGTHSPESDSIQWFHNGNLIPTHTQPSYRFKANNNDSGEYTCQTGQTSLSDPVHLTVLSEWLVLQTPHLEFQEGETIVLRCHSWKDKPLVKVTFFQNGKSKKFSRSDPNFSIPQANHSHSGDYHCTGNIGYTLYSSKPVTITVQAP
# What was measured:
# Assay in all cases: assay not named in Table 4
# CD16A V158 = biological target: T2, CD16A V158 (UniProt P08637 17-208, limits assumed)
# T2 construct: Only the name and allotype are printed; also called FcγRIIIA
# CD16A F158 = biological target: T3, CD16A F158 (UniProt P08637 17-208, limits assumed)
# T3 construct: Only the name and allotype are printed; also called FcγRIIIA
# CD32B = biological target: T1, CD32B
# T2 sequence (P08637 17-208 F176V limits assumed): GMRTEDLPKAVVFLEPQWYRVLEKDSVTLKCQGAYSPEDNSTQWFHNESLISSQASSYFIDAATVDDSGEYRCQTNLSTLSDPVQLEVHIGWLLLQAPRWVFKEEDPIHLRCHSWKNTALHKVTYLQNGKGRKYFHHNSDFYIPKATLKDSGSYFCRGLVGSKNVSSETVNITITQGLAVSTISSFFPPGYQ
# T3 sequence (P08637 17-208 limits assumed): as the sequence (P08637 17-208 F176V limits assumed) above, with V160F counted along it
Molecule,binding relative to wild-type Fc (CD16A V158),binding relative to wild-type Fc (CD16A F158),binding relative to wild-type Fc (CD32B)
"Fc variant D270E G316D R416G (other, UniProt P01857-1 104-330, looked up, domain: Fc) DKTHTCPPCPAPELLGGPSVFLFPPKPKDTLMISRTPEVTCVVVDVSHEEPEVKFNWYVDGVEVHNAKTKPREEQYNSTYRVVSVLTVLHQDWLNDKEYKCKVSNKALPAPIEKTISKAKGQPREPQVYTLPPSRDELTKNQVSLTCLVKGFYPSDIAVEWESNGQPENNYKTTPPVLDSDGSFFLYSKLTVDKSGWQQGNVFSCSVMHEALHNHYTQKSLSLSPGK",2.18,2.49,0.78
"Fc variant F243L D270E P396L Q419H (other, UniProt P01857-1 104-330, looked up, domain: Fc) DKTHTCPPCPAPELLGGPSVFLLPPKPKDTLMISRTPEVTCVVVDVSHEEPEVKFNWYVDGVEVHNAKTKPREEQYNSTYRVVSVLTVLHQDWLNGKEYKCKVSNKALPAPIEKTISKAKGQPREPQVYTLPPSRDELTKNQVSLTCLVKGFYPSDIAVEWESNGQPENNYKTTPLVLDSDGSFFLYSKLTVDKSRWQHGNVFSCSVMHEALHNHYTQKSLSLSPGK",1.46,1.15,0.26
"Fc variant F243I R292P Y300L V305I P396L (other, UniProt P01857-1 104-330, looked up, domain: Fc; Written as printed (F243I); may be a misprint of F243L) DKTHTCPPCPAPELLGGPSVFLIPPKPKDTLMISRTPEVTCVVVDVSHEDPEVKFNWYVDGVEVHNAKTKPPEEQYNSTLRVVSILTVLHQDWLNGKEYKCKVSNKALPAPIEKTISKAKGQPREPQVYTLPPSRDELTKNQVSLTCLVKGFYPSDIAVEWESNGQPENNYKTTPLVLDSDGSFFLYSKLTVDKSRWQQGNVFSCSVMHEALHNHYTQKSLSLSPGK",,3.12,1.05
"Fc variant D270E P396L Q419H (other, UniProt P01857-1 104-330, looked up, domain: Fc) DKTHTCPPCPAPELLGGPSVFLFPPKPKDTLMISRTPEVTCVVVDVSHEEPEVKFNWYVDGVEVHNAKTKPREEQYNSTYRVVSVLTVLHQDWLNGKEYKCKVSNKALPAPIEKTISKAKGQPREPQVYTLPPSRDELTKNQVSLTCLVKGFYPSDIAVEWESNGQPENNYKTTPLVLDSDGSFFLYSKLTVDKSRWQHGNVFSCSVMHEALHNHYTQKSLSLSPGK",1.64,,0.68
"Fc variant F243L D270E K392T P396L (other, UniProt P01857-1 104-330, looked up, domain: Fc) DKTHTCPPCPAPELLGGPSVFLLPPKPKDTLMISRTPEVTCVVVDVSHEEPEVKFNWYVDGVEVHNAKTKPREEQYNSTYRVVSVLTVLHQDWLNGKEYKCKVSNKALPAPIEKTISKAKGQPREPQVYTLPPSRDELTKNQVSLTCLVKGFYPSDIAVEWESNGQPENNYTTTPLVLDSDGSFFLYSKLTVDKSRWQQGNVFSCSVMHEALHNHYTQKSLSLSPGK",3.16,2.44,0.44
"Fc variant F243L D270E G316D R416G (other, UniProt P01857-1 104-330, looked up, domain: Fc) DKTHTCPPCPAPELLGGPSVFLLPPKPKDTLMISRTPEVTCVVVDVSHEEPEVKFNWYVDGVEVHNAKTKPREEQYNSTYRVVSVLTVLHQDWLNDKEYKCKVSNKALPAPIEKTISKAKGQPREPQVYTLPPSRDELTKNQVSLTCLVKGFYPSDIAVEWESNGQPENNYKTTPPVLDSDGSFFLYSKLTVDKSGWQQGNVFSCSVMHEALHNHYTQKSLSLSPGK",1.5,1.34,0.2
"Fc variant F243L P247L D270E N421K (other, UniProt P01857-1 104-330, looked up, domain: Fc) DKTHTCPPCPAPELLGGPSVFLLPPKLKDTLMISRTPEVTCVVVDVSHEEPEVKFNWYVDGVEVHNAKTKPREEQYNSTYRVVSVLTVLHQDWLNGKEYKCKVSNKALPAPIEKTISKAKGQPREPQVYTLPPSRDELTKNQVSLTCLVKGFYPSDIAVEWESNGQPENNYKTTPPVLDSDGSFFLYSKLTVDKSRWQQGKVFSCSVMHEALHNHYTQKSLSLSPGK",2.3,3.45,0.32
"Fc variant D270E K392T P396L (other, UniProt P01857-1 104-330, looked up, domain: Fc) DKTHTCPPCPAPELLGGPSVFLFPPKPKDTLMISRTPEVTCVVVDVSHEEPEVKFNWYVDGVEVHNAKTKPREEQYNSTYRVVSVLTVLHQDWLNGKEYKCKVSNKALPAPIEKTISKAKGQPREPQVYTLPPSRDELTKNQVSLTCLVKGFYPSDIAVEWESNGQPENNYTTTPLVLDSDGSFFLYSKLTVDKSRWQQGNVFSCSVMHEALHNHYTQKSLSLSPGK",1.81,2.28,0.79

# Second part, the molecule after the results:
binding relative to wild-type Fc (CD16A V158),binding relative to wild-type Fc (CD16A F158),binding relative to wild-type Fc (CD32B),Molecule
1.14,1.37,0.37,Fc variant V284M R292P K370N (from UniProt P01857 104-330)
1.52,1.74,0.87,"Fc variant R255L D270E Y300L P396L (other, UniProt P01857-1 104-330, looked up, domain: Fc) DKTHTCPPCPAPELLGGPSVFLFPPKPKDTLMISLTPEVTCVVVDVSHEEPEVKFNWYVDGVEVHNAKTKPREEQYNSTLRVVSVLTVLHQDWLNGKEYKCKVSNKALPAPIEKTISKAKGQPREPQVYTLPPSRDELTKNQVSLTCLVKGFYPSDIAVEWESNGQPENNYKTTPLVLDSDGSFFLYSKLTVDKSRWQQGNVFSCSVMHEALHNHYTQKSLSLSPGK"
1.75,1.64,0.38,"Fc variant F243L R255L D270E P396L (other, UniProt P01857-1 104-330, looked up, domain: Fc) DKTHTCPPCPAPELLGGPSVFLLPPKPKDTLMISLTPEVTCVVVDVSHEEPEVKFNWYVDGVEVHNAKTKPREEQYNSTYRVVSVLTVLHQDWLNGKEYKCKVSNKALPAPIEKTISKAKGQPREPQVYTLPPSRDELTKNQVSLTCLVKGFYPSDIAVEWESNGQPENNYKTTPLVLDSDGSFFLYSKLTVDKSRWQQGNVFSCSVMHEALHNHYTQKSLSLSPGK"
1.89,2.46,0.58,"Fc variant P247L D270E N421K (other, UniProt P01857-1 104-330, looked up, domain: Fc) DKTHTCPPCPAPELLGGPSVFLFPPKLKDTLMISRTPEVTCVVVDVSHEEPEVKFNWYVDGVEVHNAKTKPREEQYNSTYRVVSVLTVLHQDWLNGKEYKCKVSNKALPAPIEKTISKAKGQPREPQVYTLPPSRDELTKNQVSLTCLVKGFYPSDIAVEWESNGQPENNYKTTPPVLDSDGSFFLYSKLTVDKSRWQQGKVFSCSVMHEALHNHYTQKSLSLSPGK"
1.89,1.71,0.17,"Fc variant F243L P247L N421K (other, UniProt P01857-1 104-330, looked up, domain: Fc) DKTHTCPPCPAPELLGGPSVFLLPPKLKDTLMISRTPEVTCVVVDVSHEDPEVKFNWYVDGVEVHNAKTKPREEQYNSTYRVVSVLTVLHQDWLNGKEYKCKVSNKALPAPIEKTISKAKGQPREPQVYTLPPSRDELTKNQVSLTCLVKGFYPSDIAVEWESNGQPENNYKTTPPVLDSDGSFFLYSKLTVDKSRWQQGKVFSCSVMHEALHNHYTQKSLSLSPGK"
,,0.65,"Fc variant R255L D270E R292G P396L (other, UniProt P01857-1 104-330, looked up, domain: Fc) DKTHTCPPCPAPELLGGPSVFLFPPKPKDTLMISLTPEVTCVVVDVSHEEPEVKFNWYVDGVEVHNAKTKPGEEQYNSTYRVVSVLTVLHQDWLNGKEYKCKVSNKALPAPIEKTISKAKGQPREPQVYTLPPSRDELTKNQVSLTCLVKGFYPSDIAVEWESNGQPENNYKTTPLVLDSDGSFFLYSKLTVDKSRWQQGNVFSCSVMHEALHNHYTQKSLSLSPGK"
2.56,1.43,,"Fc variant F243L R292P V305I (other, UniProt P01857-1 104-330, looked up, domain: Fc; also called Mutant 13*) DKTHTCPPCPAPELLGGPSVFLLPPKPKDTLMISRTPEVTCVVVDVSHEDPEVKFNWYVDGVEVHNAKTKPPEEQYNSTYRVVSILTVLHQDWLNGKEYKCKVSNKALPAPIEKTISKAKGQPREPQVYTLPPSRDELTKNQVSLTCLVKGFYPSDIAVEWESNGQPENNYKTTPPVLDSDGSFFLYSKLTVDKSRWQQGNVFSCSVMHEALHNHYTQKSLSLSPGK"
10.1,8.25,1.38,"Fc variant F243L R292P Y300L V305I P396L (other, UniProt P01857-1 104-330, looked up, domain: Fc; also called Mutant 18) DKTHTCPPCPAPELLGGPSVFLLPPKPKDTLMISRTPEVTCVVVDVSHEDPEVKFNWYVDGVEVHNAKTKPPEEQYNSTLRVVSILTVLHQDWLNGKEYKCKVSNKALPAPIEKTISKAKGQPREPQVYTLPPSRDELTKNQVSLTCLVKGFYPSDIAVEWESNGQPENNYKTTPLVLDSDGSFFLYSKLTVDKSRWQQGNVFSCSVMHEALHNHYTQKSLSLSPGK"
1.34,1.65,0.87,"Fc variant R255L D270E P396L (other, UniProt P01857-1 104-330, looked up, domain: Fc) DKTHTCPPCPAPELLGGPSVFLFPPKPKDTLMISLTPEVTCVVVDVSHEEPEVKFNWYVDGVEVHNAKTKPREEQYNSTYRVVSVLTVLHQDWLNGKEYKCKVSNKALPAPIEKTISKAKGQPREPQVYTLPPSRDELTKNQVSLTCLVKGFYPSDIAVEWESNGQPENNYKTTPLVLDSDGSFFLYSKLTVDKSRWQQGNVFSCSVMHEALHNHYTQKSLSLSPGK"
5.37,2.53,0.4,"Fc variant F243L R292P V305I P396L (other, UniProt P01857-1 104-330, looked up, domain: Fc; also called Mutant 17) DKTHTCPPCPAPELLGGPSVFLLPPKPKDTLMISRTPEVTCVVVDVSHEDPEVKFNWYVDGVEVHNAKTKPPEEQYNSTYRVVSILTVLHQDWLNGKEYKCKVSNKALPAPIEKTISKAKGQPREPQVYTLPPSRDELTKNQVSLTCLVKGFYPSDIAVEWESNGQPENNYKTTPLVLDSDGSFFLYSKLTVDKSRWQQGNVFSCSVMHEALHNHYTQKSLSLSPGK"
10.1,5.62,1.07,"Fc variant F243L R292P Y300L P396L (other, UniProt P01857-1 104-330, looked up, domain: Fc; also called Mutant 16) DKTHTCPPCPAPELLGGPSVFLLPPKPKDTLMISRTPEVTCVVVDVSHEDPEVKFNWYVDGVEVHNAKTKPPEEQYNSTLRVVSVLTVLHQDWLNGKEYKCKVSNKALPAPIEKTISKAKGQPREPQVYTLPPSRDELTKNQVSLTCLVKGFYPSDIAVEWESNGQPENNYKTTPLVLDSDGSFFLYSKLTVDKSRWQQGNVFSCSVMHEALHNHYTQKSLSLSPGK"
